Data taken from the supplement of paper PMC10065799, “High-throughput profiling of sequence recognition by tyrosine kinases and SH2 domains using bacterial peptide display” (eLife, 2023).
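Also: 11-residue human phosphosite peptides and single-mutation variants displayed on the E. coli surface, counted by deep sequencing, each peptide's frequency after selection divided by its frequency in the unselected input library; frequency after pTyr selection over input frequency; kinase dosed for 20-30% of maximal phosphorylation in three min.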

The sequences below were run against Fyn (UniProt P06241) (assay: phosphorylation enrichment, bacterial display (enrichment ratio); higher = better substrate or ligand; peptides without Tyr show the background).
Sequence of Fyn (P06241 whole entry, looked up): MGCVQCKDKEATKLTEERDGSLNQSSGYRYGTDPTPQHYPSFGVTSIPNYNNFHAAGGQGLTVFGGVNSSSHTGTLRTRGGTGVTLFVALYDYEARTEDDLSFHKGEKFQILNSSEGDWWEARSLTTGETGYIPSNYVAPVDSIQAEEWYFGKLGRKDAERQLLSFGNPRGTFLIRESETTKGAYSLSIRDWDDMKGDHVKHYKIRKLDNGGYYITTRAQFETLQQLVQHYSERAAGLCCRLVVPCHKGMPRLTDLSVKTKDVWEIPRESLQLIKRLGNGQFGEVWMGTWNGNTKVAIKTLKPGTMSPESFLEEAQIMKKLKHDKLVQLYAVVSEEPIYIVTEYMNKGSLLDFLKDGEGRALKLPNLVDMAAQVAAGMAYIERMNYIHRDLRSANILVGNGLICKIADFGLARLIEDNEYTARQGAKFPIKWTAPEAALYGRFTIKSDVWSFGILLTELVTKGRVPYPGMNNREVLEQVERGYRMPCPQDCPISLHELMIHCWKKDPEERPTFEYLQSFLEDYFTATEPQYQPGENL
KWRGQYDVANK [BTK_Y425_I429N] was tested, and the phosphorylation enrichment was 0.359. For VNTMLYEKFTY [TEK_Y1108_T1106M], the phosphorylation enrichment was 6.38. VDLSKYITTIA [FAS_Y232] showed a phosphorylation enrichment of 0.348. In the case of FEPWVYSFSYE [PRKDC_Y647], the phosphorylation enrichment is reported as 6.53. Sequence RPSGRYPVARR [SHANK3_Y1569] has a phosphorylation enrichment of 0.985. Work on ISDDNYGRIRL [ARCN1_Y310_K309N] yielded a phosphorylation enrichment of 0.704. For NFYEYYVDDPL [GCHFR_Y48_P53L], the phosphorylation enrichment was 4.96. Work on KSPDSYQKILF [ATM_Y1415_L1420F] yielded a phosphorylation enrichment of 0.484. Sequence KTNVSYCGALD [CACNB4_Y103] has a phosphorylation enrichment of 0.381. For SVTCTYSPAFN [TP53_Y126_L130F], the phosphorylation enrichment was 0.518. Sequence ERLWDCGMSSS [F8_Y1728_Y1728C] has a phosphorylation enrichment of 0.517. With INSLKYAYNVS [EIF2B5_Y583_I587V] the phosphorylation enrichment was 0.633. With PYSEPYADYGG [APBA1_Y187] the phosphorylation enrichment was 1.89. Work on MIRSTYALGGL [CPS1_Y590_A589T] yielded a phosphorylation enrichment of 0.466. For LEITWYPFDVE [RIPOR2_Y316], the phosphorylation enrichment was 0.751. GRFCGYKSKHG [EPHA3_Y570] gave a phosphorylation enrichment of 0.321. Work on VSTAVYKRFPS [BEST1_Y148] yielded a phosphorylation enrichment of 0.379. In the case of TENAGYYFQVS, the phosphorylation enrichment is reported as 0.456. EAIMTYVSSFY [ACTN4_Y260_K255E] showed a phosphorylation enrichment of 0.503. With NPQKSYFIHLY [WAS_Y83_R86H] the phosphorylation enrichment was 0.589. Sequence VITDFYVDMKF [MPP4_Y567_YF] has a phosphorylation enrichment of 0.457. With FIATQYSLCPR [LBR_Y166_R169C_YF] the phosphorylation enrichment was 0.486. With QLRPGYIPIPV [BAG3_Y93] the phosphorylation enrichment was 0.736. Sequence FADIAYIYRHG [PAH_Y166_N167I] has a phosphorylation enrichment of 0.432. IGGHAYGDQYR [IDH1_Y135_R132G] showed a phosphorylation enrichment of 0.382. CFTGKYTLPPG [HSPB1_Y142_R140G] gave a phosphorylation enrichment of 0.595. VAVTKYCKEEL [ATP7B_Y1078] gave a phosphorylation enrichment of 0.455. RSACTYLASHL [PLK3_Y615] showed a phosphorylation enrichment of 0.468. Sequence TSSAGYRAAEG [COL6A3_Y543] has a phosphorylation enrichment of 0.422. ARQEEYSAMRD [KRAS_Y64_G60R] gave a phosphorylation enrichment of 0.429. TRYDEYLEVTK [MAP1A_Y2217_H2214Y] was tested, and the phosphorylation enrichment was 0.519. PLQNTYNFNVL [SLC4A1_Y553_K551N_YF] showed a phosphorylation enrichment of 1.67. For RLLRGYDQFAY [HLA-C_Y137_S140F], the phosphorylation enrichment was 0.395.

What follows are sequences tested on Fer (mouse) in the same assay as above.
KWRGQYDVANK [BTK_Y425_I429N] gave a phosphorylation enrichment of 0.446. For VNTMLYEKFTY [TEK_Y1108_T1106M], the phosphorylation enrichment was 10.4. With VDLSKYITTIA [FAS_Y232] the phosphorylation enrichment was 0.394. Work on FEPWVYSFSYE [PRKDC_Y647] yielded a phosphorylation enrichment of 1.35. RPSGRYPVARR [SHANK3_Y1569] was tested, and the phosphorylation enrichment was 0.695. ISDDNYGRIRL [ARCN1_Y310_K309N] gave a phosphorylation enrichment of 1.32. With NFYEYYVDDPL [GCHFR_Y48_P53L] the phosphorylation enrichment was 6.36. KSPDSYQKILF [ATM_Y1415_L1420F] was tested, and the phosphorylation enrichment was 0.338. Work on KTNVSYCGALD [CACNB4_Y103] yielded a phosphorylation enrichment of 0.46. Sequence SVTCTYSPAFN [TP53_Y126_L130F] has a phosphorylation enrichment of 0.553. In the case of ERLWDCGMSSS [F8_Y1728_Y1728C], the phosphorylation enrichment is reported as 0.371. With INSLKYAYNVS [EIF2B5_Y583_I587V] the phosphorylation enrichment was 0.419. For PYSEPYADYGG [APBA1_Y187], the phosphorylation enrichment was 1.34. Sequence MIRSTYALGGL [CPS1_Y590_A589T] has a phosphorylation enrichment of 0.489. LEITWYPFDVE [RIPOR2_Y316] was tested, and the phosphorylation enrichment was 0.827. GRFCGYKSKHG [EPHA3_Y570] gave a phosphorylation enrichment of 0.426. VSTAVYKRFPS [BEST1_Y148] gave a phosphorylation enrichment of 0.395. For TENAGYYFQVS, the phosphorylation enrichment was 0.604. Work on EAIMTYVSSFY [ACTN4_Y260_K255E] yielded a phosphorylation enrichment of 0.445. Sequence NPQKSYFIHLY [WAS_Y83_R86H] has a phosphorylation enrichment of 0.517. VITDFYVDMKF [MPP4_Y567_YF] showed a phosphorylation enrichment of 0.925. For FIATQYSLCPR [LBR_Y166_R169C_YF], the phosphorylation enrichment was 0.631. In the case of QLRPGYIPIPV [BAG3_Y93], the phosphorylation enrichment is reported as 0.645. Work on FADIAYIYRHG [PAH_Y166_N167I] yielded a phosphorylation enrichment of 0.486. With IGGHAYGDQYR [IDH1_Y135_R132G] the phosphorylation enrichment was 0.448. CFTGKYTLPPG [HSPB1_Y142_R140G] showed a phosphorylation enrichment of 0.521. VAVTKYCKEEL [ATP7B_Y1078] showed a phosphorylation enrichment of 0.494. With RSACTYLASHL [PLK3_Y615] the phosphorylation enrichment was 0.519. TSSAGYRAAEG [COL6A3_Y543] showed a phosphorylation enrichment of 0.429. ARQEEYSAMRD [KRAS_Y64_G60R] was tested, and the phosphorylation enrichment was 0.387. Work on TRYDEYLEVTK [MAP1A_Y2217_H2214Y] yielded a phosphorylation enrichment of 0.592. In the case of PLQNTYNFNVL [SLC4A1_Y553_K551N_YF], the phosphorylation enrichment is reported as 0.812. In the case of RLLRGYDQFAY [HLA-C_Y137_S140F], the phosphorylation enrichment is reported as 0.502.
